Test results taken from PMC6420115 (Science (New York, N.y.), 2018).
Read-outs that look alike come from different tables or passages of the source.

What was measured:
[1] = molecular target: T1, minimal NANP3 peptide (Plasmodium falciparum (isolate NF54).)
T1 chain: NANPNANPNANP

[2] = molecular target: T2, NANP5 peptide (NANP 5-mer peptide of the PfCSP repeat) (Plasmodium falciparum (isolate NF54).); assay: ITC; conditions: both partners purified
T2 construct: source: bought: Alpha Diagnostic International
T2 chain: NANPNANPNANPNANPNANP

[3] = molecular target: T3, NANP3 peptide (minimal NANP repeat peptide) (Plasmodium falciparum (isolate NF54).); assay: ITC; conditions: both partners purified
T3 construct: source: bought: PSL GmbH, Heidelberg
T3 chain: NANPNANPNANP

[4] = molecular target: T4, full length PfCSP (NF54 strain) (Plasmodium falciparum (isolate NF54)., UniProt P19597); assay: BLI; conditions: both partners purified
T4 construct: also called NF54 PfCSP; circumsporozoite protein; source: HEK293F, transient expression, purified (HisTrap Ni/NTA, SEC)

[5] = molecular target: T1, minimal NANP3 peptide; assay: SPR; independent NANP3 SPR affinity measurements of original and mutated antibodies; who was immobilised is not given in the source; conditions: both partners purified
[6] = molecular target: T5, full-length PfCSP with 38 NANP repeats (Plasmodium falciparum (isolate NF54)., UniProt P19597); assay: SEC-MALS; 1210 Fab–PfCSP complex; molar mass from two measurements; conditions: both partners purified
T5 construct: also called circumsporozoite protein; NF54
T5 sequence (P19597 19-374): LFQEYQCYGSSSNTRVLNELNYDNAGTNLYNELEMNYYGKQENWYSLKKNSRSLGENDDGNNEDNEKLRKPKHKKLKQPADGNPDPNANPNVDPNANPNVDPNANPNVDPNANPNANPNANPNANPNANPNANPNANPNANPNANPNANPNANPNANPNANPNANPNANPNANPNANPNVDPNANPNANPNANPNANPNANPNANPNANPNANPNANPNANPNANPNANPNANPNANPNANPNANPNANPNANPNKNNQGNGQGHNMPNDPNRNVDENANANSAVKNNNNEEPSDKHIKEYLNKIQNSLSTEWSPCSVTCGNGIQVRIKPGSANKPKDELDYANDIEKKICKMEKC

T4 sequence (P19597 19-374): as above

B1: 1210_H.N31_Srev (antibody, V domains shown)
VH: QVQLVESGGGVVQPGRSLRLSCAASGFTFSSYGMHWVRQAPGKGLEWVAVIWYDGSKKYYADSVKGRFTISRDNSKNTLYLQMNSLRAEDTAVYYCARVRDSSDYYGDAFDIWGQGTMVTVSS
VL: DIQMTQSPSTLSASVGDRVTITCRASQSISSWLAWYQQKPGKAPKLLIYKASNLESGVPLRFSGSGSGTEFTLTISSLQPDDFATYYCQQYNNYWTFGQGTKVEIK
binding result [1]: binds

B2: 1210_H.K56_Nrev_K.N93_Srev Fab (recombinant Fab for ITC) (Fab, V domains shown)
VH: QVQLVESGGGVVQPGRSLRLSCAASGFTFSNYGMHWVRQAPGKGLEWVAVIWYDGSNKYYADSVKGRFTISRDNSKNTLYLQMNSLRAEDTAVYYCARVRDSSDYYGDAFDIWGQGTMVTVSS
VL: DIQMTQSPSTLSASVGDRVTITCRASQSISSWLAWYQQKPGKAPKLLIYKASNLESGVPLRFSGSGSGTEFTLTISSLQPDDFATYYCQQYNSYWTFGQGTKVEIK
notes: source: HEK293F, transiently expressed, purified (KappaSelect, SEC)
stoichiometry N [2]: 1.7 | stoichiometry N [3]: 0.94

B3: 1210_YY IgG (1210 H.D100Ymut_K.N92Ymut) (antibody, V domains shown)
VH: QVQLVESGGGVVQPGRSLRLSCAASGFTFSNYGMHWVRQAPGKGLEWVAVIWYDGSKKYYADSVKGRFTISRDNSKNTLYLQMNSLRAEDTAVYYCARVRDSSYYYGDAFDIWGQGTMVTVSS
VL: DIQMTQSPSTLSASVGDRVTITCRASQSISSWLAWYQQKPGKAPKLLIYKASNLESGVPLRFSGSGSGTEFTLTISSLQPDDFATYYCQQYYNYWTFGQGTKVEIK
notes: IgG1; source: HEK293F, purified (Protein G Sepharose)
Kd [4]: 660 pM

B4: 1210 H.D100Ymut_K.N92Ymut Fab (recombinant Fab for ITC) (Fab, V domains shown)
VH: QVQLVESGGGVVQPGRSLRLSCAASGFTFSNYGMHWVRQAPGKGLEWVAVIWYDGSKKYYADSVKGRFTISRDNSKNTLYLQMNSLRAEDTAVYYCARVRDSSYYYGDAFDIWGQGTMVTVSS
VL: DIQMTQSPSTLSASVGDRVTITCRASQSISSWLAWYQQKPGKAPKLLIYKASNLESGVPLRFSGSGSGTEFTLTISSLQPDDFATYYCQQYYNYWTFGQGTKVEIK
notes: as for B2
stoichiometry N [2]: 2.1 | stoichiometry N [3]: 0.88

B5: 1210_K. N93_S^rev (antibody, V domains shown)
VH: QVQLVESGGGVVQPGRSLRLSCAASGFTFSNYGMHWVRQAPGKGLEWVAVIWYDGSKKYYADSVKGRFTISRDNSKNTLYLQMNSLRAEDTAVYYCARVRDSSDYYGDAFDIWGQGTMVTVSS
VL: DIQMTQSPSTLSASVGDRVTITCRASQSISSWLAWYQQKPGKAPKLLIYKASNLESGVPLRFSGSGSGTEFTLTISSLQPDDFATYYCQQYNSYWTFGQGTKVEIK
binding result [5]: binds

B6: 2163_KN (antibody, V domains shown)
VH: QVQLVESGGGVVQPGRSLRLSCAASGFTFSSYGMHWVRQAPGKGLEWVAVIWYDGSKKYYADSVKGRFTISRDNSKNTLYLQMNSLRAEDTAVYYCARVQTTTGGGSCCPFDYWGQGTLVTVSS
VL: DIQMTQSPSSLSASVGDRVTITCRASQSISSWLAWYQQKPGKAPKLLIYKASSLESGVPSRFSGSGSGTEFTLTISSLQPDDFATYYCQQYNNYWTFGQGTKVEIK
binding result [1]: binds

B7: 1210_H.K56_N^rev (antibody, V domains shown)
VH: QVQLVESGGGVVQPGRSLRLSCAASGFTFSNYGMHWVRQAPGKGLEWVAVIWYDGSNKYYADSVKGRFTISRDNSKNTLYLQMNSLRAEDTAVYYCARVRDSSDYYGDAFDIWGQGTMVTVSS
VL: DIQMTQSPSTLSASVGDRVTITCRASQSISSWLAWYQQKPGKAPKLLIYKASNLESGVPLRFSGSGSGTEFTLTISSLQPDDFATYYCQQYNNYWTFGQGTKVEIK
binding result [5]: binds

B8: 1210 germline antibody Fab (recombinant Fab for ITC) (Fab, V domains shown)
VH: QVQLVESGGGVVQPGRSLRLSCAASGFTFSSYGMHWVRQAPGKGLEWVAVIWYDGSNKYYADSVKGRFTISRDNSKNTLYLQMNSLRAEDTAVYYCARVRDSSDYYGDAFDIWGQGTMVTVSS
VL: not shown
notes: as for B2
stoichiometry N [2]: 1.9 | stoichiometry N [3]: 0.92

B9: 1210 Fab (recombinant Fab for ITC) (Fab, V domains shown)
VH: QVQLVESGGGVVQPGRSLRLSCAASGFTFSNYGMHWVRQAPGKGLEWVAVIWYDGSKKYYADSVKGRFTISRDNSKNTLYLQMNSLRAEDTAVYYCARVRDSSDYYGDAFDIWGQGTMVTVSS
VL: DIQMTQSPSTLSASVGDRVTITCRASQSISSWLAWYQQKPGKAPKLLIYKASNLESGVPLRFSGSGSGTEFTLTISSLQPDDFATYYCQQYNNYWTFGQGTKVEIK
notes: as for B2
stoichiometry N [2]: 1.8 | stoichiometry N [3]: 0.73

B10: 1210 antigen-binding fragment (Fab) (Fab, V domains shown)
VH: QVQLVESGGGVVQPGRSLRLSCAASGFTFSNYGMHWVRQAPGKGLEWVAVIWYDGSKKYYADSVKGRFTISRDNSKNTLYLQMNSLRAEDTAVYYCARVRDSSDYYGDAFDIWGQGTMVTVSS
VL: DIQMTQSPSTLSASVGDRVTITCRASQSISSWLAWYQQKPGKAPKLLIYKASNLESGVPLRFSGSGSGTEFTLTISSLQPDDFATYYCQQYNNYWTFGQGTKVEIK
stoichiometry N [6]: ~12 Fabs per PfCSP

B11: 1210 IgG (antibody, V domains shown)
VH: QVQLVESGGGVVQPGRSLRLSCAASGFTFSNYGMHWVRQAPGKGLEWVAVIWYDGSKKYYADSVKGRFTISRDNSKNTLYLQMNSLRAEDTAVYYCARVRDSSDYYGDAFDIWGQGTMVTVSS
VL: DIQMTQSPSTLSASVGDRVTITCRASQSISSWLAWYQQKPGKAPKLLIYKASNLESGVPLRFSGSGSGTEFTLTISSLQPDDFATYYCQQYNNYWTFGQGTKVEIK
notes: as for B3
Kd [4]: < 1 pM

B12: 2163 (antibody, V domains shown)
VH: QVQLVESGGGVVQPGRSLRLSCAASGFTFSSYGMHWVRQAPGKGLEWVAVIWYDGSNKYYADSVKGRFTISRDNSKNTLYLQMNSLRAEDTAVYYCARVQTTTGGGSCCPFDYWGQGTLVTVSS
VL: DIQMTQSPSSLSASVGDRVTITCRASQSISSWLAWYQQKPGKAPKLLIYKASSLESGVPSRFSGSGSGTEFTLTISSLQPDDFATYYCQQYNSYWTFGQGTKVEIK
binding result [1]: binds

B13: 2163_H.N56_Kmut (antibody, V domains shown)
VH: QVQLVESGGGVVQPGRSLRLSCAASGFTFSSYGMHWVRQAPGKGLEWVAVIWYDGSKKYYADSVKGRFTISRDNSKNTLYLQMNSLRAEDTAVYYCARVQTTTGGGSCCPFDYWGQGTLVTVSS
VL: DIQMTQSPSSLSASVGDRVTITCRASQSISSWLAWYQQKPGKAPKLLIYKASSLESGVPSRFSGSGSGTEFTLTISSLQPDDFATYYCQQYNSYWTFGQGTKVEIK
binding result [1]: binds

B14: 2163_H.S31_Nmut (antibody, V domains shown)
VH: QVQLVESGGGVVQPGRSLRLSCAASGFTFSNYGMHWVRQAPGKGLEWVAVIWYDGSNKYYADSVKGRFTISRDNSKNTLYLQMNSLRAEDTAVYYCARVQTTTGGGSCCPFDYWGQGTLVTVSS
VL: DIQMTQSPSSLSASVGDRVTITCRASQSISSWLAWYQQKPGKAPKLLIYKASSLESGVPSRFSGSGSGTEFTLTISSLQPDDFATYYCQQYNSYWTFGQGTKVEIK
binding result [1]: binds

B15: 2163_H.V50_Imut (antibody, V domains shown)
VH: QVQLVESGGGVVQPGRSLRLSCAASGFTFSSYGMHWVRQAPGKGLEWVAIIWYDGSNKYYADSVKGRFTISRDNSKNTLYLQMNSLRAEDTAVYYCARVQTTTGGGSCCPFDYWGQGTLVTVSS
VL: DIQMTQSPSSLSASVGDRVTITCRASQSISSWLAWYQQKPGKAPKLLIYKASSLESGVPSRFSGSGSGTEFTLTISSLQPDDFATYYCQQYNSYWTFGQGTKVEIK
binding result [1]: binds
